The record followed here is the DeepSol protein solubility set.

A short description of the data set: soluble on expression in E. coli; label from the status in PepcDB or PDB records.
In the case of “MIDWDDLECRVAREESRHQAGIGTCSLALQIGFFFDGLKRNINVDEESQRLTNVGRLFRAHSFEIKASLTSAYSSAKIYVPGLGTLLDDTPSERLDSILDARQQALPEDYADALVEQGKETAVDTVKGVFKEDWSQVLSNKLGDLVTMKSGFDATVSAAKKAATRALLEATEPIRDNPIVAELLMTGVDARVDLAKNKFKESIVLSKKENQLPIKLVQISVFGADLGAALARRFIDELLESVCTKVGNEYRYEDSKVEVIFAGLFDCTRRSSMDMGDTVATISDGAGLVARHPVVGLITTAFGAKVITFDKPLHPAVKKALHLIAAHERREYRPLLPLGPLRSGWREVLCPGISEDVTGGLLPDEQRPSAELCRVPLRQMYETARRAQVPFPNFSILDAKNPRVAQYFIMQDSRLGYSAKKYSEYYSKWVGKMNPTPEAFELHMIHYCFWLGEKLHDYKILRQNVSGSERDKLNAQWGWLIQVGRDAENVLRSRGLSRQMYRGADLVKFFNGIKRVPREADIFFNYFMHDFTSEELKFATLNEQANTMLRNNNFFVPRGIEILAVDDEAAALEHHHHHH”, the “soluble on expression in E. coli” value is recorded as “soluble”.

Take “MADKHLIREKVLRNLNTIDKVEHRERSIKLAEKLFLLPEWNQAKVIGITLARHPEIETETIILQAKKEGKTVLIPKTFYPSRKMEFKKMDSSHPLTKTKFGILEPHELAETVDKDAIDLLIVPGVVFNKAHFRIGFGGGFYDRFLADFKGETVSLCLYEQQIEFTPESHDKPVSILIEG”: the “soluble on expression in E. coli” value is given as “soluble”.

In the case of “MKKIGFVGAGSMAEAMINGILQSGITKPEHIYITNRSNDERLIELKETYSVRPCRDKNEFFTHTDIIILAFKPKDAAESIDSIRPYIKDQLVISVLAGLTIETIQHYFGRKLAVIRVMPNTSAAIRKSATGFSVSTEASKNDIIAAKALLETIGDATLVEERHLDAVTAIAGSGPAYVYRYIEAMEKAAQKVGLDKETAKALILQTMAGATDMLLQSGKQPEKLRKEITSPGGTTEAGLRALQDSRFEEAIIHCIEETAKRSAEIKEQFAGAALERHSLEHHHHHH”, the “soluble on expression in E. coli” value is given as “soluble”.

Regarding “MSLADLQKNFQTSFRDAMASCAAGVHVITTDGAAGRYGITMTAVAPVTDEPPTVMLCINRSARIIPILSENGSLCINTLADEHQDVAEHFAGLTGLSPEERFAYHIWHRGKTGQLEIEGALAHLHGHIVGKHEIGTHFVFYVRLDEIKNCGCKRPALLYFRRQFRFLDEGGSHHHHHH”, the “soluble on expression in E. coli” value is reported as “soluble”.

In the case of “MAHHHHHHSLSFSCPLCHQPLSREKNSYICPQRHQFDMAKEGYVNLLPVQHKRSRDPGDSAEMMQARRAFLDAGHYQPLRDAIVAQLRERLDDKATAVLDIGCGEGYYTHAFADALPEITTFGLDVSKVAIKAAAKRYPQVTFCVASSHRLPFSDTSMDAIIRIYAPCKAEELARVVKPGGWVITATPGPRHLMELKGLIYNEVHLHAPHAEQLEGFTLQQSAELCYPMRLRGDEAVALLQMTPFAWRAKPEVWQTLAAKEVFDCQTDFNIHLWQRSYEG”, the “soluble on expression in E. coli” value is given as “soluble”.

As to “MYKILRTEKSWIEGSAVEQVKKLASLKGVENVIGYPDLHPGKTPIGISIITKDVIYPHLIGNDIGCSISLFETSELKRKFKVEKVMKTLQNSDLKNEIKKDFNLGTIGGGNHFAEFTLVDKILDESETTNFDKNKVYLLVHSGSRGLGEEILRKYIDYYSCQNGLAVNSEGFNNYISDYKKAVVFAKENRQLIAKNLCQLLNLKAFDLKIEAIHNGLELREDYIIHRKGAATALNKYVVIAGSRGDYSYIVKPINSSLETGFSIAHGAGRKWKRSGCKEKLQGKFSKKAIRNRSFSYNLICSNTNLVYEEAPEAYKNIDRVIDDLLSFNLIKVVARLKPLITYKDLEHHHHHH”, the “soluble on expression in E. coli” value was “not soluble”.

Regarding “SGARRMETDYNPVELSSMSGFEEGSELNGFEGADMKDMQLEAEAVVNDVLFAVNHMFVSKSMPCADDVAYINVETKERNRYCLELTEAGLRVVGYAFDQVEDHLQTPYHETVYSLLDTLSPAYREAFGNALLQRLEALKRDGQS”, the “soluble on expression in E. coli” value was “soluble”.

Consider “MGSDKIHHHHHHMNRKGNLSMTTQLQHLTLPEDIQQKLLSYKEQPISPEFQSLIGTSGYEAEDEAILFDAIIALAMGKNVLLKGPTGSGKTKLAETLSSYFHKPMHSVNCSVDLDAEALVGYKTIENQSGQATIEFVSGPVTKAMKEGHFLYIDEINMAKPETLPILNGVLDYRKMMTNPFTGEVIRAKSGFGVIAAINEGYVGTVPLNEALKNRFVIIDVPYIKGELLKQVLMSQSALKDEKLIDRFITLSSDLIVQANNGQVSEEAASIRALIDTCDLAAYIPPRRAIERGIVEKLDDDREKAAVRNIAETLFE”, for which the “soluble on expression in E. coli” value is “not soluble”.

For the sequence “MKKKIGLLVMAYGTPYKEEDIERYYTHIRRGRKPSPEMLEDLTERYRAIGGISPLATITLEQAKKLEKRLNEVQDEVEYHMYLGLKHIEPFIEDAVKEMHNDGIQDAIALVLAPHYSTFSVKSYVGRAQEEAEKLGNLTIHGIDSWYKEPKFIQYWVDAVKSIYSGMSDAEREKAVLIVSAHSLPEKIIAMGDPYPDQLNETADYIARGAEVANYAVGWQSAGNTPDPWIGPDVQDLTRELNEKYGYTSFVYAPVGFVAEHLEVLYDNDFECKVVTDEIGAKYYRPEMPNASDAFIDCLTDVVVKKKESVM”, the “soluble on expression in E. coli” value was “soluble”.

For the sequence “MSFVPSEVRLDHTFLEWDKEWIFQRLPKTEIQIPREFEPDIETDAIPTIARQPADPNTTWNETGLDQIQMGPTINSTKN”, the “soluble on expression in E. coli” value was “not soluble”.

As for “MGSTSSLYAAIDLGSNSFHMLVVREVAGSIQTLTRIKRKVRLAAGLNSENALSNEAMERGWQCLRLFAERLQDIPPSQIRVVATATLRLAVNAGDFIAKAQEILGCPVQVISGEEEARLIYQGVAHTTGGADQRLVVDIGGASTELVTGTGAQTTSLFSLSMGCVTWLERYFADRNLGQENFDAAEKAAREVLRPVADELRYHGWKVCVGASGTVQALQEIMMAQGMDERITLEKLQQLKQRAIHCGRLEELEIDGLTLERALVFPSGLAILIAIFTELNIQCMTLAGGALREGLVYGMLHLAVEQDIRSRTLRNIQRRFMIDIDQAQRVAKVAANFFDQVENEWHLEAISRDLLISACQLHEIGLSVDFKQAPQHAAYLVRNLDLPGFTPAQKKLLATLLLNQTNPVDLSSLHQQNAVPPRVAEQLCRLLRLAIIFASRRRDDLVPEMTLQANHELLTLTLPQGWLTQHPLGKEIIAQESQWQSYVHWPLEVH”, the “soluble on expression in E. coli” value is reported as “soluble”.

Consider “MIERSLNATEKAIESIREGELVRRHTDLELRDMQISMNEDFDRIRGMMHELDEQIHKDRSGNSKWMNQKMEKAKATADQALASTLMVKDVQLLEKKVNILKESVVQVNKSFYKYEKDVDMNDLMDQVIDMVHRTEKKEQDALEAHATDEQAIGKAFRGAIEGLYGLKSSNSKVMEEAKLLAGEMRVFRDAASNKNFHTMISRIASNTATSGVPLKYSSGPESSFSTSAYTSFSKSANNSSMSGSN”, for which the “soluble on expression in E. coli” value is given as “not soluble”.

As for “MSLQPVAKTEQPEGGILYDFGKETFGFITLKNLSGKGKIDLYYGESPEEAKDKAYCETLDKLLLEPGQITDLAIRSTSPLHHSDNEYTLENSKAFRYVYITHEPEVQIGEVSMQYEYLPEEYRGNFRCNDEELNCIWEVGAYTMHLTTREFFIDGIKRDRWVWSGDAIQSYLMNYYLFFDSESVKRTIWLLRGKDPVTSHSNTIMDYTFYWFLSVYDYYMYSGDRHFVNQLYPRMQTMMDYVLGRTNKNGMVEGMSGDWVFVDWADGYLDKKGELSFEQVLFCRSLETMALCADLVGDKDGQQKYEKLASALKAKLEPTFWNNQKQAFVHNCVDGRQSDAVTRYANMFSVFFDYLNADKQQAIKQSVLLNDEILKITTPYMRFYELEALCALGEQETVMKEMKAYWGGMLKAGATSFWEKYNPEESGTQHLAMYGRPYGKSLCHAWGASPIYLLGKYYLGVKPTKEGYKEFAVSPVLGGLKWMEGTVPTPNGDIHVYMDNKTIKVKATEGKGYLTIQSRRQPKANMGTVEKVSEGVWRLWIDSPEERIVTYRLEGHHHHHH”, the “soluble on expression in E. coli” value is reported as “soluble”.

For “MGSDKIHHHHHHMQKNITSLSGLNWDDLKFFLEVARTRKVSSAARRLAVDYTTVSRRINSLETSLGTLLFEKSRNNGFIMTAEGQRLLGYAESIESTLHMACEQVSGSSVALSGHIRMGCTEGFGSFFITPQLSHFLDNYPSISVDILPLPHFISLSKREADIVIALERPEHGPYVCCKLCDYSLRLYATQEYLDNHAPIQRKADLSEHVFISYVDDLAFSSELLYLSNLLPNAQAQLRSTSVIAQYTAALQGRALAILPCFLAAQDPRLLPVLTEEVNITRQFWMYCREDLRKLKRITLLWDYIREVTELNKGFLLGENRAARFV”, the “soluble on expression in E. coli” value is given as “not soluble”.

On to “MGSDKIHHHHHHMVKHHCRMVFKFKLGFFTDLHGSEYSFKRSLNIAKSKRVDFLIISGGLIAKEILFVEDIGGRYFLNGKKVNLNNLNEDALRSGKYIVVDKKEVIEDIKSDKSKLEKIVIEKASEQMSRWVKIAEEIFRLEKVFWSPAHGDIPQLDSILKNYGSNLINENVINLEEIQIVSLGFGSPIGNSYREIPDSELYIKGKSLLKDADKERLIMNFHMPPLNTKLDNAKVGLRKSHVGSKAVLDLITEFQPIISLHGHVHESTSMDKVGETIAINPGSLYQLGDPSIVTFEVHKELKSFGSVNVSKYVIKNIEFVSTNPLDVI”, for which the “soluble on expression in E. coli” value was “not soluble”.

Turning to “MSIKIGLLGFGTVASGIPFLLKENGEKVFAASRDQLEIAKVLVKDDEEKDRLIAAGNDYNFVTNVDEILNDEEIQIVVELMGRIEPARTFITKALEAGKNVVSANKDLIATHGKELIALAQDKGVAFYYEAAVAGGIPILRTLANSLTSDKVTRILGVLNGTSNFMMTKMVDEGWSYEDALKTAQELGYAESDPTNDVEGYDAAYKAVILSQFGFGATIDFDDVSHKGITNISTDDVAVAQELGYVIKLVGDVREVESGISAEVSPTFLPKNHPLASVNDVMNAVFVESIGIGESMYYGPGAGQKPTATSVLADIIRIARRLSDGNVGKPFNEFRRDLPLANPADVKSNYYFALDTPDEKGKILHLSEIFNSEDISFEQVLQQKANGTTARIVVITHAMSKTQLKAVTEKLEAAEDFTVVNTLKVLSNLEHHHHHH”, the “soluble on expression in E. coli” value is listed as “soluble”.

As to “MSEAPATEHGQCLCGAVGFTATLGAREFGVCHCSMCRRWSGGAFMAVECTDIAFENEQRLGVYSSSKWGERCFCKNCGSTLVWRSKDGKHFAVSLQAFDKPSSFTFVQQIFTDEKPSSYSFAQTTQNMTGPEFIAMITSAEH”, the “soluble on expression in E. coli” value is listed as “not soluble”.

With “MNYAFVVQARLGSTRLPGKILKPFYGNQSILDLMVHKLSAISNIPVIIATTNSVINEPIEKKALALGVKCFRGEENDVLKRFIDVAEYFDIQGIFRICSDNPFLDVHAARQLVEIAMKSCNDYISFDIDGTPSIKTHFGFWGEFVTLDALKRVIGFTDDLLYREHVTNYIYSHPELFNIQWISGSPVVSKHHNIRLTIDTLEDFSVAQRIYRDLQEKRVEISIEVIVDYVRRHAEYIQLMKQQIKKNSKLEHHHHHH”, the “soluble on expression in E. coli” value is listed as “soluble”.

In the case of “MKLSKIKLPYFMNELTLTELDMGVAVPKILQAFKPYVDHQGLWIDLEMSYNGSFLMTLETKMNLTKLGKEPLVEALKVGEIGKEGCRPRAFCLADSDEESSSAGSSEEDDAPEPSGGDKQLLPGAEGYVGGHRTSKIMRFVDKITKSKYFQKATETEFIKKKIEEVSNTPLLLTVEVQECRGTLAVNIPPPPTDRVWYGFRKPPHVELKARPKLGEREVTLVHVTDWIEKKLEQEFQKVFVMPNMDDVYITIMHSAMDPRSTSCLLKDPPVEAADQP”, the “soluble on expression in E. coli” value is reported as “not soluble”.

For the sequence “MNWVTHKPTFEFDNFSPFIRANTAWLGHLEFAYDLVRFEKPEILVELGTHMGASFFSFCQGVKDGGLATKCFAVDTWTGDGHTGPYGEGVFHIVDKVVKTSYPNIGNLIKSTFDEAVDQFQDGTINLLHIDGYHTYEAVSHDYKTWLPKLADNGIVLFHDIEVKDRNFGVYKFWDEVKAKYPHFQFQHSYGLGVLFPKGCSDRFKEILKNKEEIQDMYKLEHHHHHH”, the “soluble on expression in E. coli” value was “soluble”.
